The values below come from paper PMC10786891, “Massively parallel profiling of RNA-targeting CRISPR-Cas13d”.

Positions count from the first letter of the chain named. Names may count otherwise.

T1: EsCas13d, nuclease-dead (Eubacterium siraeum, UniProt B0MS50, R295A;H300A;R849A;H854A)
T1 sequence: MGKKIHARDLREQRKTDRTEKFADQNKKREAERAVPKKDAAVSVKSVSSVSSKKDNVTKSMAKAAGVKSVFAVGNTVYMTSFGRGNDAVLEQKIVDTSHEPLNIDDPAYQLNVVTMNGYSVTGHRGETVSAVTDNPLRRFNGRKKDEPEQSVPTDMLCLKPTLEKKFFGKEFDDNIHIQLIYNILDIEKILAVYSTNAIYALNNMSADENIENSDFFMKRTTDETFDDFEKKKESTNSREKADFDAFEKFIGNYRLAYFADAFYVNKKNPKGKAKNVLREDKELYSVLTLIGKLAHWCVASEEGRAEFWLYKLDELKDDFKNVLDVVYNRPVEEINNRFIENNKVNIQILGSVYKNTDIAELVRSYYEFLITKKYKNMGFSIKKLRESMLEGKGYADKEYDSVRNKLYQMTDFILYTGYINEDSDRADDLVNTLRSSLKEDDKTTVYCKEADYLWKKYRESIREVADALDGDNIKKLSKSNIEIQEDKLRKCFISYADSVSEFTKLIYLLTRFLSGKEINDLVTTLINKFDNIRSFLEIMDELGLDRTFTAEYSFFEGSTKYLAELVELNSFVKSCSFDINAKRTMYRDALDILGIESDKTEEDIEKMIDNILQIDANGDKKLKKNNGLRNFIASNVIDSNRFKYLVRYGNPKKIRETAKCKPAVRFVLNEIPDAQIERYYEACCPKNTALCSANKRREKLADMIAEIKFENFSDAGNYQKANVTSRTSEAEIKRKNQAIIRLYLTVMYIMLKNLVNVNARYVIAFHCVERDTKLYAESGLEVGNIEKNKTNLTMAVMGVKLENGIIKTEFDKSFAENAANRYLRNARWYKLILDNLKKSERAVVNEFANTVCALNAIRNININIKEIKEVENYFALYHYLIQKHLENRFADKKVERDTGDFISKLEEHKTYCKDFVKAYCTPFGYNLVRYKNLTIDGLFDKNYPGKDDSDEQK

B1: target 1 A1C,U8A (mixed)
RNA 1: CACCCGUGCAAAAAUGCAGGGGUCUAAAACUGAGCGGAUAACCUCUCUAUGG
RNA 2: GGGAAUGGAUCCACAUCUACGAAUUCGUACCAUAGAGAGGUUAACCGCUCCCCGAGAUCGGAAGAGCACACGU
B2: target 1 insG 3' of 8,insA 3' of 8 (mixed)
RNA 1: B1 RNA 1
RNA 2: GGGAAUGGAUCCACAUCUACGAAUUCGUACCAUAGAGAGGUUAUGACCGCUCACCGAGAUCGGAAGAGCACACGU
B3: target 1 G5C,A14C (mixed)
RNA 1: B1 RNA 1
RNA 2: B1 RNA 2 with A38C, A44U, G47C, C51A
B4: target 1 insU 3' of 21,insA 3' of 8 (mixed)
RNA 1: B1 RNA 1
RNA 2: GGGAAUGGAUCCACAUCUACGAAUUCGUACCUAUAGAGAGGUUAUACCGCUCACCGAGAUCGGAAGAGCACACGU
B5: target 1 insC 3' of 17,insG 3' of 1 (mixed)
RNA 1: B1 RNA 1
RNA 2: GGGAAUGGAUCCACAUCUACGAAUUCGUACCAUAGCAGAGGUUAUCCGCUCAGCCGAGAUCGGAAGAGCACACGU
B6: target 1 U3C,U8G (mixed)
RNA 1: B1 RNA 1
RNA 2: B1 RNA 2 with A44G, U49C, C51A
B7: target 1 U3G,G17A (mixed)
RNA 1: B1 RNA 1
RNA 2: B1 RNA 2 with G35A, A44U, U49G, C51A
B8: target 1 U3C,G5A (mixed)
RNA 1: B1 RNA 1
RNA 2: B1 RNA 2 with A44U, G47A, U49C, C51A
B9: target 1 insC 3' of 19,insU 3' of 15 (mixed)
RNA 1: B1 RNA 1
RNA 2: B4 RNA 2 with U32A, A33U, U34C, A39U, G40A, U42G, A44U, U45A, A46U
B10: target 1 G17A,U19G (mixed)
RNA 1: B1 RNA 1
RNA 2: B1 RNA 2 with U33G, G35A, A44U, C51A
B11: target 1 insC 3' of 14,insG 3' of 1 (mixed)
RNA 1: B1 RNA 1
RNA 2: B5 RNA 2 with C36A, A37G, G38A, A39C
B12: target 1 U8C,A20U (mixed)
RNA 1: B1 RNA 1
RNA 2: B1 RNA 2 with A32U, A44C, C51A
B13: target 1 G12U,C21U (mixed)
RNA 1: B1 RNA 1
RNA 2: B1 RNA 2 with C31U, G40U, A44U, C51A
B14: target 1 U3A,C7A (mixed)
RNA 1: B1 RNA 1
RNA 2: B1 RNA 2 with A44U, C45A, U49A, C51A
B15: target 1 insU 3' of 13,insC 3' of 11 (mixed)
RNA 1: B1 RNA 1
RNA 2: B2 RNA 2 with G40U, U41G, A43C, G45A, A46U
B16: target 1 G15C,A16G (mixed)
RNA 1: B1 RNA 1
RNA 2: B1 RNA 2 with A36G, G37C, A44U, C51A
B17: target 1 U8G,U10G (mixed)
RNA 1: B1 RNA 1
RNA 2: B1 RNA 2 with U42G, A44G, C51A
B18: target 1 G5U,U11A (mixed)
RNA 1: B1 RNA 1
RNA 2: B1 RNA 2 with U41A, A44U, G47U, C51A
B19: target 1 insG 3' of 22,insA 3' of 11 (mixed)
RNA 1: B1 RNA 1
RNA 2: B4 RNA 2 with C31G, U32C, U43A, A44U, U45A, A46U
B20: target 1 insU 3' of 15,insG 3' of 7 (mixed)
RNA 1: B1 RNA 1
RNA 2: B2 RNA 2 with A38U, G39A, U41G, A43U, U44A, G45U, A46C, C47G
B21: target 1 insC 3' of 14,insU 3' of 1 (mixed)
RNA 1: B1 RNA 1
RNA 2: B5 RNA 2 with C36A, A37G, G38A, A39C, G53U
B22: target 1 del15,del22 (mixed)
RNA 1: B1 RNA 1
RNA 2: GGGAAUGGAUCCACAUCUACGAAUUCGUACAUAGAAGGUUAUCCGCUCACCGAGAUCGGAAGAGCACACGU
B23: target 1 A16C,G17C (mixed)
RNA 1: B1 RNA 1
RNA 2: B1 RNA 2 with G35C, A36C, A44U, C51A
B24: target 1 insC 3' of 8,insU 3' of 4 (mixed)
RNA 1: B1 RNA 1
RNA 2: B2 RNA 2 with G45C, A46C, C48G, G49C, C50U
B25: target 1 C2A,U3G (mixed)
RNA 1: B1 RNA 1
RNA 2: B1 RNA 2 with A44U, U49G, C50A, C51A
B26: target 1 A1C,C6G (mixed)
RNA 1: B1 RNA 1
RNA 2: B1 RNA 2 with A44U, C46G
B27: target 1 C2U,U8G (mixed)
RNA 1: B1 RNA 1
RNA 2: B1 RNA 2 with A44G, C50U, C51A
B28: target 1 insA 3' of 15,insG 3' of 11 (mixed)
RNA 1: B1 RNA 1
RNA 2: B2 RNA 2 with G39A, U41G, A43G, G45A, A46U
B29: target 1 insG 3' of 19,insG 3' of 9 (mixed)
RNA 1: B1 RNA 1
RNA 2: B4 RNA 2 with U32A, A33U, U34G, U45G, A46U
B30: target 1 C7U,U11C (mixed)
RNA 1: B1 RNA 1
RNA 2: B1 RNA 2 with U41C, A44U, C45U, C51A
B31: target 1 insC 3' of 14,insC 3' of 1 (mixed)
RNA 1: B1 RNA 1
RNA 2: B5 RNA 2 with C36A, A37G, G38A, A39C, G53C
B32: target 1 C6A,A18G (mixed)
RNA 1: B1 RNA 1
RNA 2: B1 RNA 2 with A34G, A44U, C46A, C51A

For this series, the target named is T1, EsCas13d, nuclease-dead. Kind of series: crRNA (strand 1, pre-loaded); Mg2+; 40 mM Tris-HCl pH 7.5, 150 mM NaCl, 6 mM MgCl2, 1 mM DTT, 0.1% Tween-20, 0.2 mg/ml BSA; 25 C; 10 min per concentration, then washed. The following applies: tags: His6-TwinStrep-SUMO cleaved; N-terminal SNAP kept (SNAP-Surface 488); label: 3' end held by stalled T7 RNA polymerase.
Turning to B1, the dissociation constant (Kd) (usually the constant that tells how readily two partners part at equilibrium) is 25.5 ± 1.8 nM.
Turning to B2, the dissociation constant Kd was determined as 27.2 ± 1.4 nM.
With B3, the dissociation constant Kd came out at 14.5 ± 1.5 nM.
The molecule B4 came in with a Kd of 48 ± 4 nM.
B5 displayed a Kd of 44 ± 16 nM.
The result for B6 reads 18.6 ± 1.2 nM.
The molecule B7 had a dissociation constant (Kd) of 37 ± 4 nM.
The result for B8 reads 67 ± 22 nM; that for B9, 62 ± 26 nM; that for B10, 51 ± 6 nM.
Take B11: the dissociation constant Kd worked out at 50 ± 12 nM.
With B12, the Kd came out at 80 ± 8 nM.
The result for B13 reads 7.4 ± 0.5 nM; that for B14, 7 ± 0.4 nM.
The result for B15 reads 29 ± 7 nM.
Take B16: the Kd stood at 71 ± 11 nM.
Turning to B17, the equilibrium dissociation constant (Kd) turned out to be 20 ± 1.1 nM.
B18 gave a Kd of approximately 60 nM.
For the molecule B19, the affinity, expressed as Kd, was 33 ± 4 nM.
On to B20, for which binding was characterised by a dissociation constant (Kd) of 10.7 ± 0.4 nM.
As to B21, the Kd was approximately 50 nM.
B22 came in with a Kd of 54 ± 23 nM.
The molecule B23 registered a Kd of approximately 100 nM.
In the case of B24, the Kd turned out to be 12.2 ± 1 nM.
B25: the affinity, expressed as Kd, was 8.6 ± 0.7 nM.
The result for B26 reads 12.1 ± 1.1 nM; that for B27, 17.1 ± 0.9 nM.
For the molecule B28, binding was characterised by a dissociation constant (Kd) of 24 ± 4 nM.
For the molecule B29, the affinity, expressed as Kd, was 44 ± 5 nM.
The result for B30 reads 8.7 ± 0.4 nM.
Molecule B31 came in with an equilibrium dissociation constant (Kd) of 50 ± 11 nM.
In turn, B32 showed a Kd of 98 ± 20 nM.
